Measured values from the supplement of paper PMC10126150.
± gives the standard deviation of the averaged measurements.

Tested on: ATP
Assay: switch fluorescence ratio, 500 uM ATP over buffer (Cy3 cluster intensity, sum of 5 cycles each) (fold (ratio)); higher = stronger signal-on switching upon ATP binding; sequences stand for … in TCGTCGGCAGCGTCAGATGTGTATAAGAGACAGTTTTTTTTTTTTTTTTTTTTTTTTT…TC
Settings: aptamer strand: ATP DNA aptamer (quencher-CACCTGGGGGAGTATTGCGGAGGAAGG + anchor), 100 nM annealed; ATP concentration: 500 uM
Method in brief: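 Exposure to 500 uM ATP lasted 15 min at 22 °C before imaging, and a selection-buffer image was taken beforehand, for Cy3-labelled switching-strand clusters on a modified Illumina MiSeq flow-cell annealed to 100 nM quencher-labelled ATP aptamer. Five buffer/ATP cycles were run with NaOH stripping and re-annealing between them. The fluorescence ratio per cluster is summed target-cycle over summed buffer-cycle Cy3 intensity, averaged per switch-domain sequence. Clusters outside 100-1000 RFU were excluded.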

| Sequence | switch fluorescence ratio |
| --- | --- |
| ACTCGGGGGA | 1.018 ± 0.0035 |
| ACTCGGGTAA | 1 ± 0.017 |
| ACTCGTTTAT | 0.99 ± 0.013 |
| ACTCTGGGC | 1.17 ± 0.21 |
| ACTCTTATCA | 1.01 ± 0.023 |
| ACTCTTTATA | 1.04 ± 0.035 |
| ACTCTTTTAC | 1.291 ± 0.0056 |
| ACTGAAGATT | 1.0263 ± 0.00089 |
| ACTGACGATG | 1.31 ± 0.018 |
| ACTGAGGCCG | 1.04 ± 0.16 |
| ACTGAGGGCG | 1.02 ± 0.025 |
| ACTGAGGGTA | 1.04 ± 0.027 |
| ACTGAGTAA | 1.01 ± 0.076 |
| ACTGAGTCAT | 1.01 ± 0.034 |
| ACTGAGTTGT | 1.04 ± 0.038 |
| ACTGATTGGC | 1.18 ± 0.18 |
| ACTGCATCTA | 1.09 ± 0.033 |
| ACTGCCGGTG | 1.25 ± 0.053 |
| ACTGCCGTAT | 1.01 ± 0.036 |
| ACTGCTTCCT | 1.34 ± 0.051 |
| ACTGGAGGGC | 1.08 ± 0.1 |
| ACTGGGGAGC | 0.985 ± 0.0078 |
| ACTGGGGATA | 0.988 ± 0.047 |
| ACTGGGGATG | 0.963 ± 0.043 |
| ACTGGGTCCT | 0.973 ± 0.015 |

| Sequence | switch fluorescence ratio |
| --- | --- |
| ACTGGGTGGA | 1.02 ± 0.034 |
| ACTGGGTGGC | 1.01 ± 0.029 |
| ACTGGTATTA | 1.02 ± 0.014 |
| ACTGGTGCAT | 1.04 ± 0.019 |
| ACTGTAGTTT | 1.11 ± 0.07 |
| ACTGTATGTC | 1.03 ± 0.014 |
| ACTGTCGGGC | 1.03 ± 0.025 |
| ACTGTGAATT | 1.02 ± 0.011 |
| ACTGTTAATA | 1.03 ± 0.023 |
| ACTGTTATGT | 1.07 ± 0.022 |
| ACTGTTGGCG | 0.965 ± 0.067 |
| ACTGTTGTGT | 1.06 ± 0.1 |
| ACTGTTGTTG | 1.006 ± 0.01 |
| ACTTAAAAGC | 1 ± 0.019 |
| ACTTAACATT | 1.18 ± 0.056 |
| ACTTAGACAC | 1.095 ± 0.0089 |
| ACTTATATAG | 1.012 ± 0.0065 |
| ACTTATGTTG | 0.995 ± 0.024 |
| ACTTATTGGG | 1.03 ± 0.011 |
| ACTTATTGTA | 0.9878 ± 0.0098 |
| ACTTATTTGC | 1.16 ± 0.17 |
| ACTTCACATA | 1.35 ± 0.042 |
| ACTTCAGCAG | 1.12 ± 0.023 |
| ACTTCAGGGG | 1.13 ± 0.1 |
| ACTTCGAGCG | 1.08 ± 0.02 |

| Sequence | switch fluorescence ratio |
| --- | --- |
| ACTTGACTTG | 1.03 ± 0.018 |
| ACTTGAGTTT | 0.988 ± 0.01 |
| ACTTGATTGT | 1.02 ± 0.094 |
| ACTTGCACTT | 1.22 ± 0.038 |
| ACTTGCGGGC | 1.03 ± 0.021 |
| ACTTGCTATA | 1.06 ± 0.029 |
| ACTTGCTATC | 1.25 ± 0.048 |
| ACTTGGACGC | 1.14 ± 0.044 |
| ACTTGGGCTT | 1.03 ± 0.051 |
| ACTTGGGGTA | 0.992 ± 0.04 |
| ACTTGGGGTG | 1.04 ± 0.013 |
| ACTTGGTCGA | 0.9902 ± 0.0095 |
| ACTTGGTGGG | 0.986 ± 0.049 |
| ACTTGTTCAT | 1.01 ± 0.033 |
| ACTTTAATGA | 1.07 ± 0.018 |
| ACTTTAGCGG | 0.99001 ± 0.0002 |
| ACTTTCATGG | 1.01 ± 0.018 |
| ACTTTCCACA | 1.17 ± 0.027 |
| ACTTTGAAGC | 0.996 ± 0.019 |
| ACTTTGAATA | 0.988 ± 0.013 |
| ACTTTGACAT | 1.072 ± 0.0092 |
| ACTTTGAGAT | 1.03 ± 0.012 |
| ACTTTGCTCT | 1.032 ± 0.0064 |
| ACTTTGGAGG | 1.02 ± 0.034 |
| ACTTTGTTGC | 1.01 ± 0.0079 |

| Sequence | switch fluorescence ratio |
| --- | --- |
| ACTTTGTTTT | 1 ± 0.022 |
| ACTTTTCGGT | 1 ± 0.015 |
| ACTTTTTATG | 0.991 ± 0.035 |
| AGAAAAATAC | 1.49 ± 0.67 |
| AGAAAAATTG | 0.979 ± 0.067 |
| AGAAAAGAA | 1 ± 0.036 |
| AGAAAATATT | 1.004 ± 0.0076 |
| AGAAAATTGG | 1.01 ± 0.03 |
| AGAAAGAAAA | 0.993 ± 0.09 |
| AGAAAGAGGG | 1.002 ± 0.0013 |
| AGAAAGCGTT | 1.02 ± 0.022 |
| AGAAAGGATT | 1.01 ± 0.021 |
| AGAAAGGGCA | 1.04 ± 0.03 |
| AGAAAGGGTG | 1.14 ± 0.074 |
| AGAAAGTTAA | 0.9856 ± 0.0047 |
| AGAAATAGGA | 1.01 ± 0.035 |
| AGAAATGACG | 1 ± 0.037 |
| AGAAATTGGG | 0.992 ± 0.028 |
| AGAACAAACC | 1.08 ± 0.018 |
| AGAACGGCCT | 1.01 ± 0.019 |
| AGAAGAAGGC | 0.988 ± 0.022 |
| AGAAGAGGTA | 0.949 ± 0.024 |
| AGAAGATGGT | 0.9827 ± 0.0029 |
| AGAAGCTGGG | 1 ± 0.03 |
| AGAAGGGGAT | 1.01 ± 0.021 |

| Sequence | switch fluorescence ratio |
| --- | --- |
| AGAAGGGTGG | 0.992 ± 0.043 |
| AGAAGGGTGT | 1.02 ± 0.017 |
| AGAAGGTGTT | 1.07 ± 0.078 |
| AGAAGTCGCG | 0.9551 ± 0.0013 |
| AGAAGTGTTT | 1.022 ± 0.0063 |
| AGAATAAGAC | 1.02 ± 0.085 |
| AGAATCAGGT | 0.9701 ± 0.0014 |
| AGAATCTTGC | 1.167 ± 0.0026 |
| AGAATGAGGG | 0.991 ± 0.041 |
| AGAATGCAGC | 0.995 ± 0.041 |
| AGAATGGAAC | 0.976 ± 0.056 |
| AGAATGGAGG | 0.994 ± 0.025 |
| AGAATGGGCA | 0.989 ± 0.029 |
| AGAATTGCGG | 0.98 ± 0.044 |
| AGAATTGGGG | 0.982 ± 0.027 |
| AGAATTGTAC | 1.05 ± 0.014 |
| AGAATTGTGG | 0.9728 ± 0.0027 |
| AGAATTTTCC | 1.08 ± 0.076 |
| AGACAAATGC | 1.19 ± 0.21 |
| AGACAATTAG | 1.01 ± 0.093 |
| AGACACTTAA | 1.04 ± 0.023 |
| AGACAGGGG | 1.04 ± 0.017 |
| AGACCATCGT | 1.01 ± 0.032 |
| AGACCGTGTT | 1.03 ± 0.054 |
| AGACCTAAAG | 1.05 ± 0.069 |

| Sequence | switch fluorescence ratio |
| --- | --- |
| AGACGATGAG | 0.933 ± 0.026 |
| AGACGATTGG | 0.974 ± 0.076 |
| AGACGGCAGC | 0.992 ± 0.035 |
| AGACGGGGGT | 0.997 ± 0.028 |
| AGACGGTCAA | 1.08 ± 0.032 |
| AGACGTCGGG | 1.016 ± 0.0031 |
| AGACGTTTAA | 1.002 ± 0.0035 |
| AGACTAGGCT | 1.02 ± 0.018 |
| AGACTATGAG | 1.03 ± 0.034 |
| AGACTGGTAC | 1.156 ± 0.0022 |
| AGACTTCAGC | 1.04 ± 0.022 |
| AGAGAAGAT | 0.988 ± 0.026 |
| AGAGAATGG | 0.951 ± 0.023 |
| AGAGAGAGGT | 0.992 ± 0.045 |
| AGAGAGCCGT | 1.06 ± 0.031 |
| AGAGAGCTTT | 1.01 ± 0.021 |
| AGAGATTCGG | 1.012 ± 0.01 |
| AGAGATTGTT | 0.94745 ± 0.00025 |
| AGAGCAATTG | 1.19 ± 0.014 |
| AGAGCATATG | 1.02 ± 0.017 |
| AGAGCATGGG | 0.971 ± 0.016 |
| AGAGCTAAGT | 0.982 ± 0.027 |
| AGAGCTGGGT | 1.02 ± 0.02 |
| AGAGCTTGAT | 1 ± 0.036 |
| AGAGGAAGGG | 0.993 ± 0.01 |

| Sequence | switch fluorescence ratio |
| --- | --- |
| AGAGGAAGGT | 1.03 ± 0.046 |
| AGAGGATGTG | 1.01 ± 0.033 |
| AGAGGCATCG | 0.9941 ± 0.005 |
| AGAGGCCAGG | 1.0973 ± 0.00031 |
| AGAGGCTGTG | 1.01 ± 0.038 |
| AGAGGGAAGG | 0.959 ± 0.014 |
| AGAGGGATAC | 1.07 ± 0.035 |
| AGAGGGCGGG | 0.98 ± 0.031 |
| AGAGGGCTAT | 0.989 ± 0.038 |
| AGAGGGGGCG | 1.01 ± 0.039 |
| AGAGGGGTTA | 1.01 ± 0.056 |
| AGAGGGTGCG | 0.934 ± 0.041 |
| AGAGGGTGGG | 0.994 ± 0.04 |
| AGAGGGTTGC | 0.978 ± 0.029 |
| AGAGGTAGGA | 0.979 ± 0.016 |
| AGAGGTAGTA | 1.017 ± 0.0066 |
| AGAGGTATAC | 0.969 ± 0.011 |
| AGAGGTCCGA | 0.991 ± 0.037 |
| AGAGGTTATG | 0.986 ± 0.041 |
| AGAGGTTTGG | 0.9944 ± 0.0051 |
| AGAGTAAAGT | 0.98 ± 0.015 |
| AGAGTAGGGA | 0.989 ± 0.02 |
| AGAGTATTAA | 0.9824 ± 0.004 |
| AGAGTCACGG | 0.982 ± 0.024 |
| AGAGTCAGCA | 1.02 ± 0.021 |

| Sequence | switch fluorescence ratio |
| --- | --- |
| AGAGTCGTCA | 0.965 ± 0.0068 |
| AGAGTCGTGC | 0.997 ± 0.051 |
| AGAGTGCCTG | 1.04 ± 0.058 |
| AGAGTGTATG | 1.006 ± 0.0086 |
| AGAGTGTTGG | 0.985 ± 0.034 |
| AGAGTTAGGT | 1.021 ± 0.0047 |
| AGAGTTATTG | 0.998 ± 0.018 |
| AGAGTTCCGG | 1 ± 0.029 |
| AGAGTTTCTT | 0.981 ± 0.038 |
| AGATAAAAGG | 0.998 ± 0.015 |
| AGATAAAGGT | 0.995 ± 0.057 |
| AGATAAATCA | 0.978 ± 0.033 |
| AGATAATTCT | 1.02 ± 0.013 |
| AGATAATTTG | 0.99459 ± 0.00061 |
| AGATAATTTT | 0.988 ± 0.014 |
| AGATACTTGA | 1.01 ± 0.014 |
| AGATAGAGCG | 1.01 ± 0.024 |
| AGATAGGGAG | 0.9786 ± 0.0031 |
| AGATAGTATT | 0.986 ± 0.02 |
| AGATATACGG | 1.02 ± 0.034 |
| AGATATTTAT | 0.987 ± 0.014 |
| AGATCCTCTA | 1 ± 0.011 |
| AGATCGAGTT | 0.99 ± 0.041 |
| AGATCTGGGG | 1.04 ± 0.036 |
| AGATCTTCTT | 0.987 ± 0.015 |
